These results are taken from patent US20220064329A1 (Novo Nordisk, published 2022).

For one assay, the target named is T1, FVII(a) variant H115A (human, UniProt P08709 61-466).
T1 construct: hFVII alanine variant in cell culture supernatant
T1 sequence: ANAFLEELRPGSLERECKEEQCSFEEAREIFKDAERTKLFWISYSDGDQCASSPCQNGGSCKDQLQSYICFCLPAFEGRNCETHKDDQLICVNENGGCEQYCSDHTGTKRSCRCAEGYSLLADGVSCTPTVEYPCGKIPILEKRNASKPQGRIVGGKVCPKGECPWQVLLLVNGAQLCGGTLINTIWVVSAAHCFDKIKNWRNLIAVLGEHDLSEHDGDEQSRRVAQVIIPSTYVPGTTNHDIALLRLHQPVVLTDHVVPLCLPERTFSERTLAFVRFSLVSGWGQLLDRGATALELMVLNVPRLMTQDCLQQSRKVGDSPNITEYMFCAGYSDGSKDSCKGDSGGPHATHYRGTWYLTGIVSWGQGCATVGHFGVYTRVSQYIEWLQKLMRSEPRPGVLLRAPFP
Briefly: SPR, Biacore T200, 25 C; FVII(a) variant captured on anti-Gla Ab 4F6, mAb0842(OA) injected.

The target of a further assay is T2, FVII(a) variant I186A (human, UniProt P08709 61-466).
T2 construct: hFVII alanine variant in cell culture supernatant
T2 sequence: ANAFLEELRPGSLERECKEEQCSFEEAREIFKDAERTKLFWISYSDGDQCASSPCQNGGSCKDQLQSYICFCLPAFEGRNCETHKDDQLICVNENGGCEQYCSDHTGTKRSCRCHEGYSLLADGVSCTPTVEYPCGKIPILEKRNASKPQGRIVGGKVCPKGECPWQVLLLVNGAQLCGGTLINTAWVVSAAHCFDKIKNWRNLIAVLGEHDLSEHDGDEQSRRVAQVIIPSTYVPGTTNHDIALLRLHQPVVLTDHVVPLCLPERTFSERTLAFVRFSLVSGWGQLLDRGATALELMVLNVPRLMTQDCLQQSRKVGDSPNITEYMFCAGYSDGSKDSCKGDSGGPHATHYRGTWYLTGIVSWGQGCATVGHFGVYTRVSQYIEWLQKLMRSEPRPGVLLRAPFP
The assay is described as above.

The target in a further assay is T3, FVII(a) variant N184A (human, UniProt P08709 61-466).
T3 construct: hFVII alanine variant in cell culture supernatant
T3 sequence: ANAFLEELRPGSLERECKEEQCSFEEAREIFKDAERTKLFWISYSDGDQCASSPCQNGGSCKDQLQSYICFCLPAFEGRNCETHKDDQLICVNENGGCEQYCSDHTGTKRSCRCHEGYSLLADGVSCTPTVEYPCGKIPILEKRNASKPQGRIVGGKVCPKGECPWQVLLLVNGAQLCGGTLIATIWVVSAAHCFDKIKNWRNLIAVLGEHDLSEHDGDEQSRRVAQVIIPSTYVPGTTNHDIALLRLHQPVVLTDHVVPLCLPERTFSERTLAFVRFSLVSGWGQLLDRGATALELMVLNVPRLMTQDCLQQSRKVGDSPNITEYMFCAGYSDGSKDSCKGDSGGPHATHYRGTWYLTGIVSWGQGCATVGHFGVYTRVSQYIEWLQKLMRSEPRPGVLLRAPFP
The assay is described as above.

Another assay concerns the target T4, FVII(a) variant Y118A (human, UniProt P08709 61-466).
T4 construct: hFVII alanine variant in cell culture supernatant
T4 sequence: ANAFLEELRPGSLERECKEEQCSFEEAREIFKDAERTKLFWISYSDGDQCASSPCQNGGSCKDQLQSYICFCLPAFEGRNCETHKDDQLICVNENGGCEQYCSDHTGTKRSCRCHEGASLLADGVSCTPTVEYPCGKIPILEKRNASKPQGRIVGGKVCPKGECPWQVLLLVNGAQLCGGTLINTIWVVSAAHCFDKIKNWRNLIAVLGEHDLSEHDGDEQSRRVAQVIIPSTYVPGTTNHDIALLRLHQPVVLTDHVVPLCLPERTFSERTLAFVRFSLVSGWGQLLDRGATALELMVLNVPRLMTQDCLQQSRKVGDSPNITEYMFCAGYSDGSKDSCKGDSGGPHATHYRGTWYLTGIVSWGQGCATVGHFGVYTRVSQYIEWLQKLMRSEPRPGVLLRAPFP
Described as above.

A further assay deals with T5, FVII(a) variant M391A (human, UniProt P08709 61-466).
T5 construct: hFVII alanine variant in cell culture supernatant
T5 sequence: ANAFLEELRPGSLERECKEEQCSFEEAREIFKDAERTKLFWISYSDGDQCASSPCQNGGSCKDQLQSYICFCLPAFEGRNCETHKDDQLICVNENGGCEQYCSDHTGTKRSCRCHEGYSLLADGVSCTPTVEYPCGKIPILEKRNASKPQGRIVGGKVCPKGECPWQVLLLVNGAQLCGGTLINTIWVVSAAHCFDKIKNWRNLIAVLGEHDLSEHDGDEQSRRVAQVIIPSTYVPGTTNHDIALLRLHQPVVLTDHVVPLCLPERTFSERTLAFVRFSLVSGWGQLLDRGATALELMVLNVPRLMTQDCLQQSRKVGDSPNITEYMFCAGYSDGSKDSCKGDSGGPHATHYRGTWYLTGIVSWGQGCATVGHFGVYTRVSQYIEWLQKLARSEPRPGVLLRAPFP
Briefly: SPR, ratio of KD to KD of WT. As for the experimental part: The running buffer was prepared by diluting 10-fold the 10×HBS-P buffer (supplied by GE Healthcare) and supplemented with 1 mg/ml BSA and 5 mM CaCl2 to give 10 mM HEPES, 150 mM NaCl, 0.05% v/v Polysorbate 20, pH 7.4, 5 mM CaCl2, 1 mg/ml bovine serum albumin (BSA). […] Regeneration of the chip was achieved using 10 mM HEPES, 150 mM NaCl, 20 mM EDTA, 0.05 v/v Polysorbate 20, pH 7.4. Binding data were analysed according to a 1:1 Kinetic model and steady state analysis using BiaEvaluation 4.1 supplied by the manufacturer (Biacore AB, Uppsala, Sweden). Wherever possible, ka, kd and KD values from 1:1 kinetic fitting model are reported. […] An amino acid residue is considered a hot-spot residue if substitution of that amino acid residue with alanine results in an affinity reduction of ten (10) fold or more relative to the wild type.
On the technique in general: SPR reads the build-up and loss of mass on a sensor chip optically.

B1: mAb0842(OA) (antibody, human IgG4 S228P, kappa)
heavy: QVQLQESGPGLVKPSQTLSLTCTVSGYSISSDSAWSWIRQPPGKGLEWIGYIQYSGSTNYNPSLKSRVTISRDTSKNQFSLKLSSVTAADTAVYYCARSVNYYGNSFAVGYWGQGTLVTVSSASTKGPSVFPLAPCSRSTSESTAALGCLVKDYFPEPVTVSWNSGALTSGVHTFPAVLQSSGLYSLSSVVTVPSSSLGTKTYTCNVDHKPSNTKVDKRVESKYGPPCPPCPAPEFLGGPSVFLFPPKPKDTLMISRTPEVTCVVVDVSQEDPEVQFNWYVDGVEVHNAKTKPREEQFNSTYRVVSVLTVLHQDWLNGKEYKCKVSNKGLPSSIEKTISKAKGQPREPQVYTLPPSQEEMTKNQVSLSCAVKGFYPSDIAVEWESNGQPENNYKTTPPVLDSDGSFFLVSRLTVDKSRWQEGNVFSCSVMHEALHNHYTQKSLSLSLGK
light: EIVLTQSPATLSLSPGERATLSCRASQGISDYLHWYQQKPGEAPRLLIKYTSQPATGIPARFSGSGSGTDFTLTISSLEPEDFAVYYCQNGHSFPLTFGQGTKLEIKRTVAAPSVFIFPPSDEQLKSGTASVVCLLNNFYPREAKVQWKVDNALQSGNSQESVTEQDSKDSTYSLSSTLTLSKADYEKHKVYACEVTHQGLSSPVTKSFNRGEC
chain: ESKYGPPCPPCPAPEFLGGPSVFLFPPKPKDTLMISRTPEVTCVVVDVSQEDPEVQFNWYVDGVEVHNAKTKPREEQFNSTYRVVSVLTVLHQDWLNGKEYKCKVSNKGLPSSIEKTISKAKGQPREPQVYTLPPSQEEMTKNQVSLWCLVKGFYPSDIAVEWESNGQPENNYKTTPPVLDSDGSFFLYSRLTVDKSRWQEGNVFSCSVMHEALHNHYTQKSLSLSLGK
notes: also called monovalent humanized 11F2 antibody; one-armed anti-FVII(a) antibody
For orientation: Kd means the concentration at which binding is half-saturated. Read a low Kd as a tighter complex. On to B1, for which the Kd was 8.16 nM with FVII(a) variant H115A, 0.39 nM with FVII(a) variant I186A, 1.91 nM with FVII(a) variant N184A and 1.48 nM with FVII(a) variant Y118A. In addition, the “Fold diff (Variant/WT)” value with FVII(a) variant M391A came out at 0.8 fold.
